Measured values taken from the supplement of paper PMC10567573.

B1: KRT15 (parent)
chain: FGGGSTRGGSLLAGGGGFGGGSLS
B2: IQUB (parent)
chain: CRNCINLQNEAQKRESFLKYKCLL

Variants of: B1
Assay: protein stability index of a GFP-peptide fusion (GPS, HEK-293T) (PSI 1-6); higher = more stable
Conditions: c terminus: a fixed tail appended
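Further: lentivirally expressed fusions sorted by FACS into six bins by GFP to DsRed ratio, PSI derived from sequencing read proportions per bin multiplied by bin number.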

Row | Variant | protein stability index
1 | G14N | 2.94
2 | G14I | 1.85
3 | G14P | 2.17
4 | G14R | 2.42
5 | S24I | 1.84
6 | S24M | 3.68
7 | S24D | 1.61
8 | S24K | 1.49
9 | S24N | 1.71
10 | S24T | 2.51
11 | S24P | 2.66
12 | G20Y | 2.52
13 | G20Q | 1.09
14 | G20T | 1.74
15 | G20P | 3.18
16 | G20K | 2.1
17 | G20S | 1.77
18 | G20N | 2.17
19 | G15K | 3.17
20 | G15H | 3.02
21 | G15R | 2.08
22 | G15C | 1.56
23 | G15A | 1.9
24 | G15V | 1.34
25 | F18P | 2.21

Row | Variant | protein stability index
26 | F18H | 3
27 | F18I | 1.76
28 | F1M | 2.08
29 | F1Y | 2.25
30 | F1S | 3.46
31 | F1K | 4.35
32 | F1I | 2.53
33 | G9Q | 3.25
34 | G9S | 1.05
35 | G9V | 1.84
36 | G9D | 2.73
37 | G9N | 2.35
38 | S22R | 2.82
39 | S22Q | 1.48
40 | S22T | 2.05
41 | S22L | 1.6
42 | S22H | 2.29
43 | S5A | 1.57
44 | S5F | 2.1
45 | S5P | 1.53
46 | G3F | 1.7
47 | G3W | 1.29
48 | G3D | 1.32
49 | G3N | 1.93
50 | G3I | 3.22

Row | Variant | protein stability index
51 | G3H | 1.51
52 | G3R | 2.26
53 | G3Y | 2.2
54 | G3Q | 2.17
55 | G3A | 1.79
56 | S10K | 1.28
57 | S10I | 1.79
58 | S10W | 4.19
59 | S10P | 2.12
60 | S10R | 1.4
61 | S10Q | 1.89
62 | L12Y | 1.52
63 | L12E | 2.72
64 | L12M | 2.58
65 | L12Q | 2.67
66 | L12N | 3.01
67 | L12D | 3.38
68 | L12R | 3.6
69 | L12P | 3.24
70 | L12I | 2.75
71 | G19K | 3.1
72 | G19N | 2
73 | G19I | 3.12
74 | G19F | 2.8
75 | G19D | 1.47

Row | Variant | protein stability index
76 | G19E | 2.35
77 | L23G | 2.26
78 | L23Q | 1.96
79 | L23I | 1.61
80 | L23M | 2.73
81 | T6K | 1.66
82 | T6M | 1.33
83 | T6F | 2.52
84 | T6E | 1.62
85 | T6H | 1.48
86 | T6V | 1.23
87 | G2W | 2.54
88 | G2N | 2.94
89 | G2S | 1.75
90 | G2F | 2.47
91 | G2P | 1.96
92 | G2M | 2.15
93 | G2K | 3.23
94 | G2R | 2.79
95 | G8R | 2.5
96 | G8S | 1.62
97 | G8T | 1.8
98 | G8D | 1.57
99 | G8F | 3.67
100 | G8I | 1.58

Row | Variant | protein stability index
101 | L11N | 2.78
102 | L11R | 2.08
103 | L11Y | 1.97
104 | L11F | 1
105 | L11M | 1.6
106 | L11I | 1.56
107 | L11A | 2.83
108 | G21I | 1.34
109 | G21P | 2.65
110 | G21D | 1.75
111 | G21R | 1.24
112 | G21L | 1.52
113 | G21N | 2.48
114 | G21S | 1.95
115 | R7P | 3.05
116 | R7N | 1.7
117 | R7K | 2.32
118 | G4H | 2.22
119 | G4F | 1.77
120 | G4S | 1.68
121 | G4M | 1.89
122 | G4W | 2.61
123 | G4C | 1.37
124 | G4Q | 2.17
125 | G4E | 2.55

Row | Variant | protein stability index
126 | G4K | 2.15
127 | G16T | 1.09
128 | G16V | 1.28
129 | G16E | 1.55
130 | G16M | 2.16
131 | G16Q | 2.4
132 | G16R | 1.56
133 | G16Y | 1.9
134 | G16K | 2.14
135 | A13I | 1.46
136 | A13H | 2.53
137 | A13D | 3.4
138 | A13M | 2.13
139 | A13C | 1.94
140 | A13R | 2.67
141 | A13L | 2.1
142 | G17V | 1.23
143 | G17C | 1.03
144 | G17S | 1.64
145 | G17K | 1.41
146 | G17T | 3.32
147 | G17N | 1.41
148 | G17H | 1.63

Variants of: B2
Assay: as above
Conditions: c terminus: a fixed tail appended

Row | Variant | protein stability index
149 | L24N | 1.86
150 | L24Q | 1.74
151 | L24D | 2.81
152 | L24G | 1.37
153 | L24R | 1.82
154 | L24V | 1.27
155 | L24P | 2.22
156 | L24K | 2.53
157 | L24T | 1.8
158 | L24Y | 1.69
159 | L24C | 3.57
160 | L24A | 2.56
161 | L24I | 1.75
162 | L24M | 1.79
163 | L24E | 1.65
164 | L24S | 3.46
165 | L24H | 2.19
166 | L24F | 1.82
167 | L24W | 1.46
168 | Y20K | 2.46
169 | Y20F | 1.66
170 | Y20T | 2.14
171 | Y20P | 1.89
172 | Y20R | 1.83

Row | Variant | protein stability index
173 | Y20D | 2.11
174 | Y20H | 1.69
175 | Y20Q | 2.96
176 | Y20L | 2.14
177 | Y20W | 2.46
178 | Y20A | 2.34
179 | Y20C | 3.65
180 | Y20N | 2.96
181 | Y20M | 2.66
182 | Y20G | 3.06
183 | Y20E | 2.17
184 | Y20S | 1.5
185 | L18H | 2.23
186 | L18S | 1.39
187 | L18Y | 1.38
188 | L18P | 2.11
189 | L18T | 1.88
190 | L18R | 1.65
191 | L18K | 2.15
192 | L18D | 1.63
193 | L18I | 1.51
194 | L18A | 1.57
195 | L18G | 2.9
196 | L18M | 2.72

Row | Variant | protein stability index
197 | L18V | 1.88
198 | L18W | 1.96
199 | L18Q | 1.85
200 | L18F | 2.79
201 | L18N | 2.27
202 | L18C | 2.6
203 | L18E | 2.25
204 | F17G | 2.84
205 | F17Q | 1.5
206 | F17E | 2.6
207 | F17I | 1.79
208 | F17K | 2.33
209 | F17V | 2.25
210 | F17M | 1.58
211 | F17L | 1.77
212 | F17P | 2.33
213 | F17A | 2.02
214 | F17H | 1.68
215 | F17N | 2.22
216 | F17S | 2.08
217 | F17C | 2.13
218 | F17D | 2.45
219 | F17R | 2.65
220 | F17T | 2.74

Row | Variant | protein stability index
221 | F17W | 1.58
222 | F17Y | 1.59
223 | K19I | 2.19
224 | K19H | 1.68
225 | K19F | 2.54
226 | K19E | 1.74
227 | K19R | 1.56
228 | K19L | 2.69
229 | K19N | 1.63
230 | K19A | 1.46
231 | K19M | 2.28
232 | K19W | 1.01
233 | K19G | 2.2
234 | K19C | 3.27
235 | K19T | 2.23
236 | K19Q | 1.85
237 | K19D | 1.3
238 | K19P | 1.46
239 | E15F | 2.57
240 | E15R | 1.08
241 | E15L | 2.77
242 | E15P | 2.05
243 | E15H | 2.75
244 | E15Q | 2.01

Row | Variant | protein stability index
245 | E15G | 2.37
246 | E15S | 2.3
247 | E15C | 1.47
248 | E15W | 1.62
249 | E15N | 2.51
250 | E15T | 2.24
251 | E15Y | 2.04
252 | E15M | 3.62
253 | E15K | 1.92
254 | E15A | 2.85
255 | E15D | 2.13
256 | L23I | 2.25
257 | L23M | 1.77
258 | L23T | 1.97
259 | L23A | 1.5
260 | L23R | 2.17
261 | L23S | 2.18
262 | L23V | 3.23
263 | L23P | 2.69
264 | L23D | 2.7
265 | L23F | 2.53
266 | L23C | 2.98
267 | L23N | 2.12
268 | L23H | 1.6

Row | Variant | protein stability index
269 | L23Y | 2.05
270 | L23G | 2.03
271 | L23Q | 1.87
272 | L23W | 2.21
273 | L23E | 1.75
274 | S16F | 2.23
275 | S16R | 2.62
276 | S16A | 2.05
277 | S16G | 2.93
278 | S16P | 2.2
279 | S16Q | 2.06
280 | S16H | 2.25
281 | S16W | 1.69
282 | S16V | 2.4
283 | S16T | 1.59
284 | S16C | 1.53
285 | S16K | 1.88
286 | S16N | 1.84
287 | S16L | 1.99
288 | S16E | 2.15
289 | S16I | 1.59
290 | S16D | 2.11
291 | C22R | 1.3
292 | C22W | 2.01

Row | Variant | protein stability index
293 | C22I | 2.13
294 | C22T | 1.41
295 | C22Y | 1.84
296 | C22P | 2.25
297 | C22G | 1.42
298 | C22H | 2.18
299 | C22M | 1.79
300 | C22K | 1.87
301 | C22A | 1.58
302 | C22E | 2.69
303 | C22L | 1.76
304 | C22S | 1.65
305 | C22D | 2.46
306 | C22N | 1.49
307 | C22Q | 2.33
308 | C22V | 1.73
309 | K21V | 3.66
310 | K21H | 2.47
311 | K21M | 1.76
312 | K21N | 1.47
313 | K21S | 1.94
314 | K21R | 2.53
315 | K21W | 1.78
316 | K21F | 1.74

Row | Variant | protein stability index
317 | K21C | 1.77
318 | K21P | 1.74
319 | K21G | 2.7
320 | K21Q | 2.28
321 | K21L | 1.38
322 | K21D | 2.06
323 | K21A | 1.16
324 | K21E | 1.75
325 | K21Y | 1.51
326 | K21I | 2.28
327 | K21T | 1.58
328 | R14T | 1.84
329 | R14P | 2.35
330 | R14Q | 1.89
331 | R14V | 2.36
332 | R14Y | 2.43
333 | R14S | 2.56
334 | R14W | 1.86
